Data published in patent US20200362024A1, “BIOLOGICAL MATERIALS AND USES THEREOF” (IMPERIAL INNOVATIONS LIMITED, priority 2009, published 2020).

Experiments:
[1] = system: MyD88; experiment: FBG induction of IL-6 in RA synovial fibroblasts infected with adenovirus expressing dominant negative MyD88; format: cell-based, human; settings: FBG 1 μM, 24 h; GFP control virus without effect
Excerpt: Recombinant, replication-deficient adenoviral vectors encoding wild type MyD88 (AdMyD88 wt), dominant-negative forms of MyD88 (AdMyD88dn) and the GFP control (AdGFP) were constructed in-house. A description of the synthesis of these viruses is in Andreakos (2004). All viruses used in this study are E1/E3 deleted, belong to the Ad5 serotype. Viruses were propagated in 293 human embryonic kidney cells, purified by ultracentrifugation through two cesium chloride gradients, and viral titers determined by plaque assay as previously described (Sacre (2007)).
For adenoviral gene transfer experiments, human RA synovial fibroblasts were incubated with adenoviral vectors at a multiplicity of infection of 100, washed after 2 hours, cultured in complete medium for 24 hours, then stimulated for 24 hours, after which time supernatants were collected.
(§1) Supernatants were subsequently examined for the presence of the cytokines TNF-α, IL-6, and IL-8 by enzyme-linked immunosorbent assay (ELISA) according to the manufacturer's instructions. Absorbance was read on a spectrophotometric ELISA plate reader (Labsystems Multiscan Biochromic, Vantaa, Finland) and analyzed using the Ascent software program (Thermo Labsystems, Altrincham, UK).

[2] = system: MyD88 deficient mouse embryonic fibroblasts; experiment: Cytokine synthesis in mouse embryonic fibroblasts from MyD88 deficient mice; format: cell-based; settings: 24 h; FBG 1 μM, PAM3, LPS, TNFα 100 ng/ml, IL-1 5 ng/ml
Excerpt: (§2) Homozygous MyD88 deficient mice on a C57BL/6 background were provided by the Sanger Institute (Cambridge, UK). Age matched congenic inbred wild type C57B/L6 mice were obtained from Charles River (Margate, UK). For isolation of mouse embryo fibroblasts one female aged 8-10 weeks was mated with two males aged 8-10 weeks. For isolation of bone marrow derived macrophages mice were female and between 10-12 weeks of age at the time of experimentation.
MEFs express high levels of mRNA of all 9 murine TLRs and are specifically and highly responsive to TLR ligand activation. […] Fibroblasts were cultured at 2×10^4 cells/well in DMEM containing 10% (v/v) FBS and 100 U/ml penicillin/streptomycin in 96-well tissue culture plates for 24 hours before stimulation.
(§3) Cells were incubated for 24 hours at 37° C. with the indicated doses of tenascin-C and recombinant tenascin-C fragments (1.0 μM-1.0 nM). Cells were also stimulated where indicated with LPS (1 ng/ml for human macrophages, 10 ng/ml for human fibroblasts, RA membrane cells and HEKs, 100 ng/ml for MEFS and BMDMs and 10 ng/ml for HEKS), PAM3 (10 ng/ml for human macrophages, human fibroblasts, and HEKs, 100 ng/ml for MEFs and BMDMs), murine IL-1 (5 ng/ml for MEFS) and murine TNF-α (100 ng/ml for MEFS). Unless specifically stated otherwise rough LPS was used for in vitro studies.
as §1

[3] = system: primary human macrophages; experiment: Cytokine synthesis in primary human macrophages stimulated with tenascin-C or its domains; format: cell-based
Protocol: Human monocytes were isolated from peripheral blood (London Blood Bank) and macrophages were derived from monocytes after differentiation for 4 days with 100 ng/ml of M-CSF as previously described (Foxwell (1998)).
(§4) Immediately after isolation, RA membrane cells and macrophages were cultured at 1×10^5 cells/well in RPMI 1640 containing 10% (v/v) FBS and 100 U/ml (Units/ml) penicillin/streptomycin in 96-well tissue culture plates for 24 hours before stimulation. Synovial fibroblasts (used only at either passage number 2 or 3) were cultured at 1×10^4 cells/well in DMEM containing 10% (v/v) FBS and 100 U/ml penicillin/streptomycin in 96-well tissue culture plates for 24 hours before stimulation.
as §3
(§5) Where stated, cells were pre-incubated with 10 μg/ml anti-CD14 antibody, 10 μg/ml IL1 receptor antagonist, 10 μg/ml anti-TLR2 antibody, 25 μg/ml anti-TLR4 antibody, 10 or 25 μg/ml isotype control antibody, 25 μg/ml polymyxin B, or 1 μg/ml msbB LPS, for 30 minutes at 37° C. before stimulation. Where stated, recombinant tenascin-C and FBG, and LPS were boiled for 15 minutes before addition to cells
as §1

[4] = system: RA synovial fibroblasts; experiment: Cytokine synthesis in RA synovial fibroblasts stimulated with tenascin-C, FBG or LPS; format: cell-based, human; settings: 24 h; LPS 10 ng/ml
Excerpt: RA membrane cells (representing a mixed population of all synovial cell types) were isolated from synovial membranes obtained from patients undergoing joint replacement surgery as previously described (Brennan (1989)). RA synovial fibroblasts were isolated from the mixed population of RA membrane cells as previously described (Brennan (1989)). The study was approved by the local Trust ethics committee (Riverside NHS Research Committee), and waste tissue (synovium after joint replacement surgery) was obtained only after receiving signed informed consent from the patient and anonymyzing the tissue to protect patient identity.
as §4, §3, §5, §1

[5] = system: knee joint of TLR2 and TLR4 null mice; experiment: Intra-articular injection of FBG in TLR2 and TLR4 null mice; format: in vivo; settings: 1 μg FBG intra-articular, 3 days
Excerpt: as §2, with “Homozygous TLR2 and TLR4 deficient mice on a C57BL/6 background (an inbred strain of mice with a black coat) were obtained from B&K Universal (Hull, UK) Hoshino (1999) and Takeuchi (1999). Homozygous” for “Homozygous”
Wild type mice were anesthetized by intraperitoneal injection of 150 μl of Hypnorm diluted 1:10 in sterile water and then injected with 100 ng, 1 or 3 μg FBG in 10 μl of sterile PBS into the right knee joint using a sterile 33-gauge microcannula. Control mice received an injection of 10 μl PBS alone or were not injected.
On days 3 and 7, mice were euthanized, the knee joints were excised and fixed in 10% (volume/volume) buffered formalin, decalcified, with 10% EDTA and processed to paraffin.
Coronal tissue sections (4 μm) were cut at 7 depths throughout the joint; 80 μm apart and stained with hematoxylin and eosin or Safranin-O to assess joint pathology. Histopathologic changes were scored using the following parameters as described in Van Lent (2006). […]

B1: FBG: recombinant fibrinogen-like globe, 227 amino acid globular domain at the C terminal of tenascin-C (protein)
chain: GLLYPFPKDCSQAMLNGDTTSGLYTIYLNGDKAEALEVFCDMTSDGGGWIVFLRRKNGRENFYQNWKAYAAGFGDRREEFWLGLDNLNKITAQGQYELRVDLRDHGETAFAVYDKFSVGDAKTRYKLKVEGYSGTAGDSMAYHNGRSFSTFDKDTDSAITNCALSYKGAFWYRNCHRVNLMGRYGDNNHSQGVNWFHWKGHEHSIQFAEMKLRPSNFRNLEGRRKRA
[1]
  induction of IL-6 in synovial fibroblasts expressing dominant negative MyD88: abolished
[2]
  cytokine synthesis in embryonic fibroblasts with targeted deletion of MyD88: does not stimulate
[3]; 1.0 μM tenascin-C domains, 24 h
  TNF-α, IL-6 and IL-8 synthesis in human macrophages: stimulated
[3]; boiled 15 minutes, 25 μg/ml polymyxin B pre-incubation, human macrophages and synovial fibroblasts
  cytokine stimulation: heat sensitivity and effect of polymyxin B: heat sensitive and unaffected by polymyxin B
[4]
  IL-6 synthesis in RA synovial fibroblasts: stimulated
  IL-8 synthesis in RA synovial fibroblasts: did not induce
[5]
  joint inflammation in TLR2 null mice: able to induce
